Earlier results on 1 substance are cited in article PMC7500696.

What is called Kd is the free concentration of one partner at which half of the binding sites on the other are occupied at equilibrium, for simple one-to-one binding.

The target in the series is tropomyosin N-terminal peptide N-terminal fragment (UniProt P09493). The series is described as follows: CD.

With “Leiomodin-2 Lmod2s1 Lmod2s1 (from UniProt Q3UHZ5)”, the dissociation constant (Kd) is 1000 nM.
